Experiment: label from the status in PepcDB records
In the case of “MQAVALENDVIRRFASGQMFPMAKLVLETAFQPIVEATTGTIFGYESLMRGHDRLGFSSPLALLDQAAADGELKAFEQMLASRALAKFSTLPDFSSATLFLNLDVRLIPHGDVILDKLVGHLARAGIPASSICFELSERFDNTSVPEFTSLIARMRKEGFKLAIDDFGAGHGEMKLLCDFPLDYLKIDRHFISGIDHLPRKQHLVRNIVNIAHVLGVRVIAEGIETEAEFLSCREFGVDLVQGWLIAKPTVFTSELPESFPHLNRVGVARRNSQTLDEILIRREIERLPTVFEHDSVDSVFELFRRNPQQAFFPVLNANGEPRGVINEYHLKEYIYRPFGRDLLKNKIYERTISHFVDPAPIVGLDADADQLMNMFASMGGMGGSACIILTENMRYAGIVSAASLIKVINEKQLKMAQDQNPLTALPGNRAIGGFIADSCSDGDETRFFCYCDFDNFKPFNDKYGFNAGDHAITLFSALMRRYFFAGDCFLGHIGGDDFFIGVRDWSVEELMEILERLLSDFHDDVAGLYSDEDRAAGCMKGQDRNGNERDFALLRCSIGVLTLPKGSIIANPERIGSEIASVKAAAKENEGGLVVRVFGEANLEHHHHHH”, the protein production is reported as “failed”. With “MQDAFEVALPLFLIMDPVGNAAASLAILREHTPSRQRAIIRRELVFALAIVLLFHFLGDALLGLLDIEQSTLRLSGGIILFIIAMKMVFPPAQENDPEAVTRDPFIVPIAVPLIAGPSLLAAVMVYARQAQAGMMGQASVLGGVLMAWGATALIMAFTPDLARILGPRAMRAMERLMGLILILMAVQMLENGIRIFVQSL” the protein production was “failed”. With “MQDFKKLPTVLTAEELIDKIFRRAARVEGRNPKEKALNKLATISNVSRDYFGKIIGAHPSYENLPDFYREMVDVVVGIRQLKKSLVALKWADGMIQKVVSRAVREVKGGKNPSAVVKSAYGRVASIIEQIDDELRFLNDAKNRMREIPILQDLPTIVVAGYPNVGKSSLVARISTVKPEVASYPFTTKKINLGFAEFAGKRVQIIDTPGLLDRPLSKRNRIERRAVLALKHLADIILFVIDPTETCGYSLEKQLSLLEEIKGYFAKPTVEVYSKADMHDRRDRQAYSAVTGEGIDELIKEIEKMVKIHSQTSTVIAPSGQTSTQEQHSLEHHHHHH” the protein production was “failed”. With “MQDIHFRRHYVRHLPKEVSQNDIIKALASPLINDGMVVSDFADHVITREQNFPTGLPVEPVGVAIPHTDHKYVRQNAISVGILAEPVNFEDMGGEPDPVPVRVVFMLALGESNKQLNVLGWIMDVIQDEDFMQQLLVMNDDEIYQSIYTRISERGEV” the protein production was “not failed”. For “MQDNNGPCRNFYQLVFEEGKFMPRAFLSHSSADKKSYVEMVAKKLGYNTCVYDEFSFEEGMKSAEEIMKGLSRSDLFVLFLSDSALESNWVKNELNTAQELLNTGDMKRILPIIIDKNITYKDNRIPQWLRDEYNLKYVSRPTVAARRITQKLREISWEQHPRLKEKDQIFVGRNNLTKTFEERIDAFDLQTPTCIFASGIRKIGRRTLLKNCLTKSNVVDDSYQPPIITLNSHEGLEDFIIRIYDLGFSGEFNLSDFMTTEIDHKIGIATELIRDIQVAKEILFILDNGCIITPDREINQWFLQILSHLPNQDRVTFGIASSFRLDKKYIRTRNNIFYIEVPELDKVEREGLLKRYSKFEKLELQPDELKFFGDLLNGYPEQVYYAVDLIKDLGIFQAKKDSYLIQEFNTERVNILMNKYDNNQKSKDFLYFLSEFEFVDYDFIFEIVGDEEFYINLLNELLASAICEHLGANKEYIRINDIIRDFVKRNNLSLPKEYKDKLEDHLNNFLSNYQKEEKSAADLLYSMKEALIQGKSIDEKYLIPSQFLKTMTELYDRHKRYGEIVKLADRVLQNEEYMDHRITEEIRYYLCLALARQKDSRFLQEVQKIDGANHDFLFGFFFRITGNYRKAIERLETAIEKRPHFSFAERELVNVYLLIEDFERALTLAKQNYERDKNNPYHIQAYFRCLIAEDKINGNEEKMEELLDNLNKLKTEKAKQMYMRAKAQYLAFHKDDEIGALELADLATKTYSHDIYCWFTKFDICEKYDKIDEMGNILKVLDKMIDKNSSFYSILINLKALYLAKSDQKPEALKLVFSLNNYPENALDKIIKRIESTKIPRMNKRSIKI”, the protein production was “failed”. For “MQDSFFSFLSSPINLLFLFVAFFLLFVTPWLWNIVNSAHNIHKLLDPLGIKKKENSLPVTGLLFLPLLLIIIFIEWFWPLANITLFPILASPYIKFNIIAVISVVILLILIQCDKKKSMELWVLAYAAVLYLLYLIIIMATVVVGMNAFPASHYIFAPESSMTINRTIIYGLLIAHLIFIWLTISLKFTWRLLLMILYTLALSFAYFSLIVS”, the protein production was “failed”. In the case of “MQEQVSNVRARIYKPAKSTMQSGHSKLKAWKLEFEPSCTQYTEPLMNWTGSHDTKQQVCLSFTTRELAIAYAVAHKIDYTVLQDNPRTIVPKSYADNFTKPRDM”, the protein production is reported as “not failed”. With “MQFIKRAHGEEQPYWPAGPFKIRLPFVHYRWELPEMIQGFFMFVVGLAMIPLLESYLGMPYEAALAFTFVAGVGYILPALLGVPLVPGWITPAIPVVLLYLKGFEPGPEAIRALFALQIEVAIIFLILGATRLGSKLVDVIPNSLKCGIIIGAGMAAMMGELKIGGRIDATPISLIVGSIISAYILFSLSFKNVINENSFARKIANFGMVPGMIIAMLVGWTVGEYPLPDIKWGITNPDFSLMWQYLPFTVGYPDWEIFLLAIPTALIAYVIAFGDILVGFTLVNRVDHIRKDEKIEENVDRVHLVTAIRNGFHAFLAPWPGLAGPLWTAAHATVAERYAMGRKSMESIYSGGGTFWMSGLLALFALPLVTLFKPVLPIALSLTLVLTAYICIMVGMEQLKNSTERGVAGIVAVTLAMPDPKSTMYAVCIGVILYFLIERPRLMGKHNSEDNIIFADETQEEVAVTNSNNT” the protein production was “failed”. For “MQFIYSIIGILLVLGIVYAISFNRKSVSLSLIGKALIVQFIIALILVRIPLGQQVVSVVSTGVTKVINCGQAGLNFVFGSLADSGAKTGFIFAIQTLGNIVFLSALVSLLYYVGILGFVVKWIGKGVGKIMKSSEVESFVAVANMFLGQTDSPILVSKYLGRMTDSEIMVVLVSGMGSMSVSILGGYIALGIPMEYLLIASTMVPIGSILIAKILLPQTEPVQKIDDIKMDNKGNNANVIDAIAEGASTGAQMAFSIGASLIAFVGLVSLINMMLSGLGIRLEQIFSYVFAPFGFLMGFDHKNILLEGNLLGSKLILNEFVSFQQLGDLIKSLDYRTALVATISLCGFANLSSLGICVSGIAVLCPEKRGTLARLVFRAMIGGIAVSMLSAFIVGIVTLF”, the protein production was “failed”. With “MQGADADTVADALASDDALPGAGGFAGELDGTLVRDVLGRYPLFVERAVSDEARLDPGQWSHDPTALADPRSFPAGHIRNESGTQQRWSLPSLDPFGDRETAIETVGETVETSIDAVDTDSLAIAFSGGVDSALLAARLDAPLYVAGFPDSHDIEAARSAAELLGTEVRVVELTHDAIERAVPEIARATARTNAMDVQIALPLYLVAERVAGDGFDRLALGQGADELFGGYAKVAKAPEDPRVEADTVRGAQREVIASLPDQLERDVLALRAAGVEPVTPLLHDRVIGAALRLDGDLLVDGETRKVALRAAARESLPDEIADRDKKAAQYGSLAARELDRLARQAGYKRRMDDHVTQYVESLVE” the protein production was “failed”. In the case of “MQGAGRLMQPRPDSAFVHDVRVTWGDCDPAKIAYTGHLPRFALEAIDAWWSEYHGPGGWYHLELDTNVGTPFVRLEMDFKSPVTPRHILKCHTWPTRLGTKSITFRVDGVQDGVTCFVGAFTCVFTIADQFKSQPAPDHLRALIEPHIPA”, the protein production is reported as “not failed”. With “MQGQEDEVVLVEGPTLPETPRLFPLKIRCRADLVRLPLRMSEPLQSVVDHMATHLGVSPSRILLLFGETELSPTATPRTLKLGVADIIDCVVLTSS” the protein production was “not failed”. For “MQGTKIRLMVGGLLLAAASNNVQAEALQPDPAWQQGKLDNGFSWQLLATPQRPSDRIELRLIVNTGSLSENTQEVGFAHLLPRLALMSSASFTPAQLQSLWQQGIDNERPLPPAITSYDFTLYSLSLPNNRPDLLKDALAWLSDTAGNLAVSEQTVNAALNTATDPIATFPQNIQEPWWRYRLKGSSLIGHDPGQPVTQPVDVEKLKQFYQQWYTPDAMTLYVVGNVDSRSIAAQISKAFSELKGKRTAPAAVATLAPLPPEPVSLMNEQAAQDTLSLMWDTPWHPIQDSMALSRYWRSDLAREALFWHIKQVLEKNNQKNLKLGFDCRVQYQRAQCAIHLNTPVENLTANMTFVARELAALRANGLSQAEFDALMTQKNDQLSKLFATYARTDTDILMSQRLRSQQSGVVDIAPEQYQKLRQAFLSGLTLAELNRELKQQLSQDTTLVLMQPKGEPEVNVKALQEIYNGIMAPQTVAEEEVAPAEAVETAPVMPTTAQ”, the protein production was “failed”.
